Here are results for 1 protein from paper PMC5385842 (Science signaling, 2016).

Usually koff stands for the rate constant with which the complex falls apart. A high value points to fast dissociation. What is called stoichiometry N is a count of units in the complex or per binding partner.

The series deals with the molecule itself. The series is described as follows: two-colour single-particle tracking.

B1: pre-B cell receptor (pre-BCR) on the surface of 697 cells (complex)
chain 1: GSASAPTLFPLVSCENSPSDTSSVAVGCLAQDFLPDSITFSWKYKNNSDISSTRGFPSVLRGGKYAATSQVLLPSKDVMQGTDEHVVCKVQHPNGNKEKNVPLPVIAELPPKVSVFVPPRDGFFGNPRKSKLICQATGFSPRQIQVSWLREGKQVGSGVTTDQVQAEAKESGPTTYKVTSTLTIKESDWLGQSMFTCRVDHRGLTFQQNASSMCVPDQDTAIRVFAIPPSFASIFLTKSTKLTCLVTDLTTYDSVTISWTRQNGEAVKTHTNISESHPNATFSAVGEASICEDDWNSGERFTCTVTHTDLPSPLKQTISRPKGVALHRPDVYLLPPAREQLNLRESATITCLVTGFSPADVFVQWMQRGQPLSPEKYVTSAPMPEPQAPGRYFAHSILTVSEEEWNTGETYTCVVAHEALPNRVTERTVDKSTEGEVSADEEGFENLWATASTFIVLFLLSLFYSTTVTLFKVK
chain 2: QPVLHQPPAMSSALGTTIRLTCTLRNDHDIGVYSVYWYQQRPGHPPRFLLRYFSQSDKSQGPQVPPRFSGSKDVARNRGYLSISELQPEDEAMYYCAMGARSSEKEEREREWEEEMEPTAARTRVP
chain 3: LLRPTAASQSRALGPGAPGGSSRSSLRSRWGRFLLQRGSWTGPRCWPRGFQSKHNSVTHVFGSGTQLTVLSQPKATPSVTLFPPSSEELQANKATLVCLMNDFYPGILTVTWKADGTPITQGVEMTTPSKQSNNKYAASSYLSLTPEQWRSRRSYSCQVMHEGSTVEKTVAPAECS
chain 4: LWMHKVPASLMVSLGEDAHFQCPHNSSNNANVTWWRVLHGNYTWPPEFLGPGEDPNGTLIIQNVNKSHGGIYVCRVQEGNESYQQSCGTYLRVRQPPPRPFLDMGEGTKNRIITAEGIILLFCAVVPGTLLLFRKRWQNEKLGLDAGDEYEDENLYEGLNLDDCSMYEDISRGLQGTYQDVGSLNIGDVQLEKP
chain 5: ARSEDRYRNPKGSACSRIWQSPRFIARKRGFTVKMHCYMNSASGNVSWLWKQEMDENPQQLKLEKGRMEESQNESLATLTIQGIRFEDNGIYFCQQKCNNTSEVYQGCGTELRVMGFSTLAQLKQRNTLKDGIIMIQTLLIILFIIVPIFLLLDKDDSKAGMEEDHTYEGLDIDQTATYEDIVTLRTGEVKWSVGEHPGQE
With B1, the koff worked out at 1.14 s⁻¹ and the “stoichiometry N” value was 2.
